Measured values published in article PMC3667858 (PLoS ONE, 2013).

B1: sdAb-C6 (VHH)
VHH: HVQLVESGGGSVQAGGSLRLSCTYSVYTYSSDSMAWFRQAPGKEREGVAGIYIGSGSTLYADSVKGRFTISQDKAKNTVYLQMNSLKPEDTALYYCAAGGNWYDGVLNVERAFAYWGQGTQVTVSS
notes: also called clone 6; sdAb-6
B2: Alexa Fluor-488-conjugated-sdAb-C6 (VHH)
VHH: B1 VHH
notes: also called AF488-C6; AF488-C6 probe
B3: QDs-C6 probe (VHH)
VHH: B1 VHH
notes: also called QD-sdAb probe; QDs-sdAb

How the values were obtained:
[1] = target: T1, FMDV Asia 1 virus-like particles (VLPs) (Foot-and-mouth disease virus serotype …, UniProt A2I7M2); assay: SPR; details: both partners purified
T1 construct: also called Asia 1 VLPs antigen; recombinant VLPs; copies: + +

[2] = target: T2, FMDV Asia 1 virions in infected BHK-21 cells (Foot-and-mouth disease virus serotype …, UniProt A2I7M2, strain); assay: immunostaining of cells or tissue; details: one partner purified
T2 construct: also called FMD virions; FMD Asia 1 virions; copies: + + +

| Binder | Kd [1] [nM] | koff [1] [s⁻¹] | kon [1] [M⁻¹ s⁻¹] | binding result [2] |
| --- | --- | --- | --- | --- |
| B1 | 0.44 | 0.000703 | 1.6e+06 | – |
| B2 | – | – | – | binds |
| B3 | – | – | – | binds |
